The text below walks through data of article PMC5009728 (Nucleic Acids Research, 2016).

Data set [1] deals with 6×His-thioredoxin-fused ZAD domain of Zw5 (aa 1–103) (Drosophila melanogaster). Put plainly: cross-linking.
The data set “cross-linking” deals with the molecule itself. Put plainly: cross-linking.

Usually stoichiometry N stands for the number of molecules, sites or subunits per partner or assembly. For the molecule “6×His-thioredoxin-fused ZAD domain of Zw5 (aa 1–103) (domain or fragment)”, the stoichiometry N in data set [1] turned out to be 2.

B1: 6×His-thioredoxin-fused ZAD domain of Pita (aa 1–109) (domain or fragment, Drosophila melanogaster, UniProt Q95RQ8 1-109, looked up)
chain: MAAKLEVREAMLTEKRVCRFCLTEQKLASIFEENPRVKTTANLPLQIMAITAIEVYAGDGMPGHICLECRLLFEHCYRFKQMCKRAETLLRQYPLTGNWPSPLEKPRAP
Regarding B1, in “cross-linking”, the “stoichiometry N” value stood at 2.

B2: 6×His-thioredoxin-fused ZAD domain of Grauzone (aa 1–84) (domain or fragment, Drosophila melanogaster, UniProt Q9U405 1-84, looked up)
chain: MDICRLCLRGVSGAQMCLQIFDVDSGESKVAEVLRQHFWFEVLPNDEISKVICNVCWTQVSEFHQFYVSIQEAQVIYATTSKFK
For the molecule B2, in the data set “cross-linking”, the “stoichiometry N” value was 2.

B3: 6×His-thioredoxin-fused ZAD domain of ZIPIC (aa 3–81) (domain or fragment, Drosophila, UniProt Q9VAB8 3-81, looked up)
chain: CCICQFSVRVPKDIHTDTVGHPPVLISELVLQCTRGTNYVLTEESSTICKKCCEKLARYHKSIQIARKLRGEILELIHS
Consider B3, for which, in “cross-linking”, the “stoichiometry N” value was 2.
